Blank lines part the entries; values can stand above or below the binder they belong to.
Columns and labels:
Tumor necrosis factor α [1] = biological target: T1, Tumor necrosis factor α (UniProt P01375 77-233); assay: BioVeris ECL competition with a labeled competitor; legend: ++ = IC50 about 10-50 µM
T1 construct: also called TNFα; TNF
Procedure: (§1) The resulting vectors were used to transform B. subtilis BG6006 host cells. Cultures were grown in 500 ml of MBD medium and the BBI species were purified essentially as described above and by Vogtentanz et al., 2007 (Protein Expr Purif 55:40-52 [2007]). BioVeris binding assays were performed essentially as outlined in Example 5 and by the manufacturer. Binding of the modified variant BBIs to their respective target proteins was measured using a BioVeris® binding assay, which is a competition assay that determines the binding of the modified variant BBIs to its target protein (e.g. VEGF, FGF5, TGFβ and TNFα) in the presence or absence of a labeled competitor. The competitor can be a labeled monoclonal antibody raised against the target protein or a labeled native receptor of the target protein. The electrochemiluminesent binding assays were performed essentially as described in Example 5. The apparent IC50s were determined from binding data by determining the concentration of the BBI species needed to reduce the BioVeris signal by one half. BBI scaffolds without the target binding peptide in the chymotrypsin inhibitory loop were used as negative controls.

Tumor necrosis factor α [2] = biological target: T1, Tumor necrosis factor α; assay: BioVeris ECL competition with a labeled competitor; legend: + = IC50 about 50-250 µM
Procedure: as §1

[3] = biological target: T2, vascular endothelial growth factor (UniProt P15692-4 27-191, limits assumed, biotin label (Example 5), site not stated); assay: BioVeris ECL competition with a labeled competitor; legend: ++ = IC50 about 10-50 µM
T2 construct: also called VEGF; VegF
Procedure: as §1

[4] = biological target: T2, vascular endothelial growth factor; assay: BioVeris ECL competition with a labeled competitor; legend: +++ = IC50 about 2-10 µM
Procedure: as §1

Tumor necrosis factor α [5] = biological target: T1, Tumor necrosis factor α; assay: BioVeris ECL competition; negative control for TNFα binding
[6] = biological target: T3, fibroblast growth factor 5 (UniProt P12034 21-268, limits assumed); assay: BioVeris ECL competition; wild-type negative control for FGF-5 binding
T3 construct: also called FGF-5; FGF5
T3 sequence (looked up): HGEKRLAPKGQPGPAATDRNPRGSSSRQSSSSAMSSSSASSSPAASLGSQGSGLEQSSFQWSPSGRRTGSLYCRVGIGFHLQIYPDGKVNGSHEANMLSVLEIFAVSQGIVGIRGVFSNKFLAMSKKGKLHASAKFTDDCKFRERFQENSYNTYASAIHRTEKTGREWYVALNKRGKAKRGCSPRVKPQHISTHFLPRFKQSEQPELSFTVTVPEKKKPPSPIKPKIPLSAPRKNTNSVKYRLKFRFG

[7] = biological target: T2, vascular endothelial growth factor; assay: BioVeris ECL competition; wild-type negative control for VEGF binding
[8] = biological target: T3, fibroblast growth factor 5; assay: BioVeris ECL competition with a labeled competitor; legend: ++ = IC50 about 10-50 µM
Procedure: as §1

[9] = biological target: T4, Transforming growth factor β1 (UniProt P01137 279-390); assay: BioVeris ECL competition; negative control for TGFβ binding
T4 construct: also called TGFβ1; TGFβ

[10] = biological target: T4, Transforming growth factor β1; assay: BioVeris ECL competition with a labeled competitor; legend: ++ = IC50 about 10-50 µM
Procedure: as §1

T4 sequence (P01137 279-390 limits assumed): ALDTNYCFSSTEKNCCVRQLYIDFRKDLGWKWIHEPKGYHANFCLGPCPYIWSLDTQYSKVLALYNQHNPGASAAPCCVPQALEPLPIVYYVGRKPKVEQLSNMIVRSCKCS
T1 sequence (P01375 77-233 limits assumed): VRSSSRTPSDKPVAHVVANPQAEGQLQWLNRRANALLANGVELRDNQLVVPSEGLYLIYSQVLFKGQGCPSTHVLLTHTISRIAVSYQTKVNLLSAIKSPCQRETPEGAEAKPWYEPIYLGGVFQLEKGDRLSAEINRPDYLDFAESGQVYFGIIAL
T2 sequence (P15692 other isoform, or with tags, fused parts or gaps limits assumed): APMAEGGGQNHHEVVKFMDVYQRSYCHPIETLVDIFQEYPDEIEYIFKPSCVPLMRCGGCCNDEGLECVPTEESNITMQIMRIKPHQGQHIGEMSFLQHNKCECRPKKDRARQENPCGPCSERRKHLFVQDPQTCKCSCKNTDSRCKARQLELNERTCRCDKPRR

B1: BBIt-TNFα-T1-A13I-S25R-M27A-L29P-S31A-F50K-V52T (designed binder)
chain: DPDDESSKPCCDQCICTKSNPPQCRCRDARPNACHSACKSCACRYWQDIPCKCTDITDFCYEPCKPSE
notes: also called BBIt-TNF-T1
- IC50 (Tumor necrosis factor α [1]): 10 to 50 µM

B2: BBIt-TNFα-T3-A13I-S25R-M27A-L29P-S31A-F50K-V52T (designed binder)
chain: DPDDESSKPCCDQCICTKSNPPQCRCRDARPNACHSACKSCACDMIMVSICKCTDITDFCYEPCKPSE
notes: also called BBIt-TNF-T3
- IC50 (Tumor necrosis factor α [2]): 50 to 250 µM

B3: BBIt-TNFα-T2-A13I-S25R-M27A-L29P-S31A-F50K-V52T (designed binder)
chain: DPDDESSKPCCDQCICTKSNPPQCRCRDARPNACHSACKSCACAPEPILACKCTDITDFCYEPCKPSE
notes: also called BBIt-TNF-T2
- IC50 (Tumor necrosis factor α [2]): 50 to 250 µM

B4: BBIt-VEGF-V5-A13I-S25R-M27A-L29P-S31A-F50K-V52T (designed binder)
chain: DPDDESSKPCCDQCICTKSNPPQCRCRDARPNACHSACKSCACKPSSASSCKCTDITDFCYEPCKPSE
notes: also called BBIt-AV-V5
- IC50 [3]: 10 to 50 µM

B5: BBIt-VEGF-V4-A13I-S25R-M27A-L29P-S31A-F50K-V52T (designed binder)
chain: DPDDESSKPCCDQCICTKSNPPQCRCRDARPNACHSACKSCACKHSAKAECKCTDITDFCYEPCKPSE
notes: also called BBIt-AV-V4
- IC50 [4]: 2 to 10 µM

B6: BBIt-VEGF-V2-A13I-S25R-M27A-L29P-S31A-F50K-V52T (designed binder)
chain: DPDDESSKPCCDQCICTKSNPPQCRCRDARPNACHSACKSCACKTNPSGSCKCTDITDFCYEPCKPSE
notes: also called BBIt-AV-V2
- IC50 [4]: 2 to 10 µM

B8: BBIt-VEGF-V3-A13I-S25R-M27A-L29P-S31A-F50K-V52T (designed binder)
chain: DPDDESSKPCCDQCICTKSNPPQCRCRDARPNACHSACKSCACRPTGHSLCKCTDITDFCYEPCKPSE
notes: also called BBIt-AV-V3
- IC50 [3]: 10 to 50 µM

B9: BBIt-VEGF-V1-A13I-S25R-M27A-L29P-S31A-F50K-V52T (designed binder)
chain: DPDDESSKPCCDQCICTKSNPPQCRCRDARPNACHSACKSCACSKHSQITCKCTDITDFCYEPCKPSE
notes: also called BBIt-AV-V1
- IC50 (Tumor necrosis factor α [5]): > 250 µM
- IC50 [3]: 10 to 50 µM

B12: BBIt-AV (designed binder)
chain: DDESSKPCCDQCACTKSNPPQCRCSDMRLNSCHSACKSCACYNLYGWTCFCVDITDFCYEPCKPSE
notes: BBI-AV without its 5 C-terminal amino acids; also called truncated BBI-AV; unmodified BBIt-AV
- IC50 [4]: 2 to 10 µM

B13: BBIt-AV-A13I-L29P-A40K-F50T-V52A (designed binder)
chain: DPDDESSKPCCDQCICTKSNPPQCRCSDMRPNSCHSACKSCKCYNLYGWTCTCADITDFCYEPCKPSE
notes: also called TA5; quintuple variant
- IC50 [4]: 2 to 10 µM

B18: BBIt-AV-A13I-A40K-F50T-V52A (designed binder)
chain: DPDDESSKPCCDQCICTKSNPPQCRCSDMRLNSCHSACKSCKCYNLYGWTCTCADITDFCYEPCKPSE
notes: the entry as printed carries an N-terminal DP from the linker
- IC50 [4]: 2 to 10 µM

B19: BBIt-AV-A13I-S25K-M27A-L29R-S31E-A40K-F50Q-V52Q (designed binder)
chain: DPDDESSKPCCDQCICTKSNPPQCRCKDARRNECHSACKSCKCYNLYGWTCQCQDITDFCYEPCKPSE
notes: the entry carries an N-terminal DP; also called QQ8
- IC50 [4]: 2 to 10 µM

B20: BBIt-AV-A13I-S25R-M27A-L29P-S31A-A40H-F50K-V52T (designed binder)
chain: DPDDESSKPCCDQCICTKSNPPQCRCRDARPNACHSACKSCHCYNLYGWTCKCTDITDFCYEPCKPSE
notes: the entry carries an N-terminal DP; also called KT8
- IC50 [4]: 2 to 10 µM

B21: BBIt-AV-A13I-S25K-M27A-L29R-S31A-A40H-F50R-V52L (designed binder)
chain: DPDDESSKPCCDQCICTKSNPPQCRCKDARRNACHSACKSCHCYNLYGWTCRCLDITDFCYEPCKPSE
notes: the entry carries an N-terminal DP; also called RL8
- IC50 [4]: 2 to 10 µM

Other lines, results leading:

- IC50 [4]: 2 to 10 µM
B7: BBIt-VEGF-V6-A13I-S25R-M27A-L29P-S31A-F50K-V52T (designed binder)
chain: DPDDESSKPCCDQCICTKSNPPQCRCRDARPNACHSACKSCACPVTKRVHCKCTDITDFCYEPCKPSE
notes: also called BBIt-AV-V6

- IC50 [4]: 2 to 10 µM
B10: BBdb-AV (designed binder)
chain: DPSESSKPCCDQCACTKSIPPQCRCTDVRLNSCHSACSSCACYNLYGWTCVCVDMKDFCYEPCK
notes: also called BBIdb-AV

- IC50 [6]: > 250 µM
- IC50 [7]: > 250 µM
B11: wild-type soybean Bowman-Birk protease inhibitor (other)
chain: DDESSKPCCDQCACTKSNPPQCRCSDMRLNSCHSACKSCICALSYPAQCFCVDITDFCYEPCKPSEDDKEN
notes: Negative control with the native chymotrypsin loop ALSYPAQ; also called sBBI; BBI

- IC50 [8]: 10 to 50 µM
- IC50 [9]: > 250 µM
B14: FGFps2-Q-BBIt-FGF-5 (designed binder)
chain: DPDDESSKPCCDQCICTKSNPPQCRCSDMRPNSCHSACKSCACTWIDSTPCTCADITDFCYEPCKPSE
notes: also called BBIt-FGFps2-Q-A13I-L29P-F50T-V52A

- IC50 [8]: 10 to 50 µM
B15: MM007-Q-BBIt-FGF-5 (designed binder)
chain: DPDDESSKPCCDQCICTKSNPPQCRCSDMRPNSCHSACKSCACRTQPYPLCTCADITDFCYEPCKPSE
notes: also called BBIt-MM007-Q-A13I-L29P-F50T-V52A

- IC50 [10]: 10 to 50 µM
B16: WTQ-Q-BBIt-TGFβ1 (designed binder)
chain: DPDDESSKPCCDQCICTKSNPPQCRCSDMRPNSCHSACKSCACWTQHIHNCTCADITDFCYEPCKPSE
notes: also called BBIt-WTQ-Q-A13I-L29P-F50T-V52A

- IC50 [10]: 10 to 50 µM
B17: MM021W-Q-BBIt-TGFβ1 (designed binder)
chain: DPDDESSKPCCDQCICTKSNPPQCRCSDMRPNSCHSACKSCACKHNVDWLCTCADITDFCYEPCKPSE
notes: also called MM0212-Q-BBIt-TGF; BBIt-MM021W-Q-A13I-L29P-F50T-V52A

- IC50 [10]: 10 to 50 µM
B22: PEN3-Q-BBIt-TGFβ1 (designed binder)
chain: DPDDESSKPCCDQCICTKSNPPQCRCSDMRPNSCHSACKSCACPENINVLPCTCADITDFCYEPCKPSE
notes: also called BBIt-PEN3-Q-A13I-L29P-F50T-V52A

- IC50 [4]: 2 to 10 µM
B23: BBIt-VEGKD-A13I-S25K-L29P-V52K (designed binder)
chain: DPDDESSKPCCDQCICTKSNPPQCRCKDMRPNSCHSACKSCICKYDLYWWCFCKDITDFCYEPCKPSE
notes: also called VegKD-Q

- IC50 [4]: 2 to 10 µM
B24: BBtc-AV (designed binder)
chain: DPSSKWEACCDRCACTKSIPPQCHCADIRLNSCHSACESCACYNLYGWTCRCFDITDFCYKPCSG
notes: also called BBItc-AV

Source: patent publication US20100093028A1 (DANISCO US, published 2010)
